Changes are numbered by the printed parent chain.
T1: monkey CD3 epsilon (cynomolgus monkey, UniProt Q95LI5)
T1 chain: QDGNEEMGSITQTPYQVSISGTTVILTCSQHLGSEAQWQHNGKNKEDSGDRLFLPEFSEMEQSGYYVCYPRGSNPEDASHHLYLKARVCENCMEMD

T2: human CD3 epsilon (human, UniProt P07766)
T2 chain: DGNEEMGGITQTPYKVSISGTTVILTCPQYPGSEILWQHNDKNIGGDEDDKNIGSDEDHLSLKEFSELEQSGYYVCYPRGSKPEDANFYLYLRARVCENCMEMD

B1: 15H2L3 (antibody, V domains shown)
VH: EVQLLESGGGLVQPGGSLRLSCAASGFTFNTYAMNWVRQAPGKGLEWVARIRSKYNNYATYYAISVKDRFTISRDNSKNTLYLQMNSLRAEDTAVYYCVKHGNFGNSYLSYWAYWGQGTLVTVSS
VL: QAVVTQEPSLTVSPGGTVTLTCQSSTGAVTTNNYANWVQQKPGHAFRGLIGGTKQRAPGVPARFSGSLLGGKAALTLSGVQPEDEAEYYCVLWYSNLWVFGGGTKLTVL
B2: 26H2L3 (antibody, V domains shown)
VH: B1 VH with I64D, L109I, Y111W
VL: B1 VL with Q23K, N32S, K54N, Q55L, R56H, V91A
B3: 15H3L3 (antibody, V domains shown)
VH: B1 VH with N76D, V95M, K100R
VL: B1 VL
B4: 15H2L2 (antibody, V domains shown)
VH: B1 VH
VL: B1 VL with A2T, H44Q, F46P, G48A, V60T
B5: 15H3L2 (antibody, V domains shown)
VH: B1 VH with N76D, V95M, K100R
VL: B1 VL with A2T, H44Q, F46P, G48A, V60T
B6: 26H3L3 (antibody, V domains shown)
VH: B1 VH with I64D, N76D, V95M, K100R, L109I, Y111W
VL: B1 VL with Q23K, N32S, K54N, Q55L, R56H, V91A
B7: CD20-TCB (CD3 arm) (antibody)
chain 1: not shown
chain 2: QVQLVQSGAEVKKPGSSVKVSCKASGYAFSYSWINWVRQAPGQGLEWMGRIFPGDGDTDYNGKFKGRVTITADKSTSTAYMELSSLRSEDTAVYYCARNVFDGYWLVYWGQGTLVTVSSASTKGPSVFPLAPSSKSTSGGTAALGCLVEDYFPEPVTVSWNSGALTSGVHTFPAVLQSSGLYSLSSVVTVPSSSLGTQTYICNVNHKPSNTKVDEKVEPKSCDKTHTCPPCPAPEAAGGPSVFLFPPKPKDTLMISRTPEVTCVVVDVSHEDPEVKFNWYVDGVEVHNAKTKPREEQYNSTYRVVSVLTVLHQDWLNGKEYKCKVSNKALGAPIEKTISKAKGQPREPQVCTLPPSRDELTKNQVSLSCAVKGFYPSDIAVEWESNGQPENNYKTTPPVLDSDGSFFLVSKLTVDKSRWQQGNVFSCSVMHEALHNHYTQKSLSLSP
chain 3: EVQLLESGGGLVQPGGSLRLSCAASGFTFSTYAMNWVRQAPGKGLEWVSRIRSKYNNYATYYADSVKGRFTISRDDSKNTLYLQMNSLRAEDTAVYYCVRHGNFGNSYVSWFAYWGQGTLVTVSSASVAAPSVFIFPPSDEQLKSGTASVVCLLNNFYPREAKVQWKVDNALQSGNSQESVTEQDSKDSTYSLSSTLTLSKADYEKHKVYACEVTHQGLSSPVTKSFNRGEC
chain 4: DIVMTQTPLSLPVTPGEPASISCRSSKSLLHSNGITYLYWYLQKPGQSPQLLIYQMSNLVSGVPDRFSGSGSGTDFTLKISRVEAEDVGVYYCAQNLELPYTFGGGTKVEIKRTVAAPSVFIFPPSDRKLKSGTASVVCLLNNFYPREAKVQWKVDNALQSGNSQESVTEQDSKDSTYSLSSTLTLSKADYEKHKVYACEVTHQGLSSPVTKSFNRGEC
B8: MBS303-2 (CD3 arm) (antibody, V domains shown)
VH: B1 VH with N76D, V95M, K100R
VL: B1 VL
B9: MBS303-1 (CD3 arm) (antibody, V domains shown)
VH: B1 VH
VL: B1 VL
B10: 19-37 (antibody, V domains shown)
VH: EVKLLESGGGLVQPKGSLKLSCAASGFTFNTYAMNWVRQAPGKGLEWVARIRSKYNNYATYYAISVKDRFTISRDDSQSILYLQMNNLKTEDTAMYYCVRHGNFGNSYISYWAYWGQGTLVTVSA
VL: QAVVTQESALTTSPGETVTLTCRSSTGAVTTNNYANWVQEKPDHLFTGLIGGTRLSAPGVPARFSGSLIGDKAALTITGAQTEDEAIYFCVLWYSNLWVFGGGTKLTVL
B11: 19-15 (antibody, V domains shown)
VH: B10 VH with I109L
VL: B10 VL with R23Q, R54K, L55Q, S56R
B12: 19-26 (antibody, V domains shown)
VH: B10 VH with I64D, Y111W
VL: B10 VL with R23K, N32S, R54N, S56H, V91A
B13: CD3-19 (antibody, V domains shown)
VH: B10 VH with T31S, I64D, I109L
VL: B10 VL with R23D, N32S, R54Q, L55R

Molecular target: T1, monkey CD3 epsilon
Assay: SPR

Binder	Kd [nM]
B1	0.777
B2	2.27
B3	0.616
B4	5.84
B5	0.591
B6	0.192

Molecular target: T2, human CD3 epsilon
Assay: SPR

Binder	Kd [nM]
B7	5.6
B8	1.79
B9	1.99

Molecular target: T2, human CD3 epsilon
Assay: SPR
Remark: another data set of the same source

Binder	Kd [nM]
B10	0.00628
B11	0.143
B12	0.184
B13	0.222

Molecular target: T1, monkey CD3 epsilon
Assay: SPR
Remark: another data set of the same source

Binder	Kd [nM]
B10	0.00379
B11	0.232
B12	0.237
B13	0.347

Molecular target: T2, human CD3 epsilon
Assay: SPR
Remark: another data set of the same source

Binder	Kd [nM]
B1	0.104
B2	3.95
B3	0.0967
B4	0.516
B5	0.205
B6	0.864
